Results as given in US20160038588A1, “Myostatin Antagonism in Human Subjects” (AMGEN INC., priority 2013, published 2016).
Where no end group is shown, it is not given here.

Experiments:
myostatin [1] = biological target: T1, myostatin (Homo sapiens, UniProt O14793); assay: C2C12 pMARE-luc cell based myostatin activity assay
T1 construct: To produce mature myostatin, the pooled promyostatin was enzymatically cleaved between the propeptide and mature myostatin C terminal; made in house
T1 sequence (O14793 267-375): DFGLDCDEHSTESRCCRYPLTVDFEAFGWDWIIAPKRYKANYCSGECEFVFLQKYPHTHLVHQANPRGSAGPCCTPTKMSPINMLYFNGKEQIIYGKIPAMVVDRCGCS
Excerpt: The antagonists including the binding agents described herein can be tested for their ability to bind myostatin and inhibit or block myostatin activity. Any number of assays or animal tests may be used to determine the ability of the agent to inhibit or block myostatin activity. Several assays used for characterizing the peptides and peptibodies of the present invention are described in the Examples below. One assay is the C2C12 pMARE-luc assay which makes use of a myostatin-responsive cell line (C2C12 myoblasts) transfected with a luciferase reporter vector containing myostatin/activin response elements (MARE). Exemplary peptibodies are assayed by pre-incubating a series of peptibody dilutions with myostatin, and then exposing the cells to the incubation mixture. The resulting luciferase activity is determined, and a titration curve is generated from the series of peptibody dilutions. The IC50 (the concentration of peptibody to achieve 50% inhibition of myostatin activity as measured by luciferase activity) was then determined. A second assay described below is a BIAcore® assay to determine the kinetic parameters ka (association rate constant), kd (dissociation rate constant), and KD (dissociation equilibrium constant) for the myostatin binding agents and other antagonists such as antibodies capable of binding myostatin and its receptor. Lower dissociation equilibrium constants (KD, expressed in nM) indicated a greater affinity of the peptibody for myostatin. […] These assays are described in Example 3.
C2C12 Cell Based Myostatin Activity Assay
A myostatin-responsive reporter cell line was generated by transfection of C2C12 myoblast cells (ATCC No: CRL-1772) with a pMARE-luc construct. The pMARE-luc construct was made by cloning twelve repeats of the CAGA sequence, representing the myostatin/activin response elements (Dennler et al. EMBO 17: 3091-3100 (1998)) into a pLuc-MCS reporter vector (Stratagene cat #219087) upstream of the TATA box. The myoblast C2C12 cells naturally express myostatin/activin receptors on its cell surface. When myostatin binds the cell receptors, the Smad pathway is activated, and phosphorylated Smad binds to the response element (Macias-Silva et al. Cell 87:1215 (1996)), resulting in the expression of the luciferase gene. Luciferase activity is then measured using a commercial luciferase reporter assay kit (cat # E4550, Promega, Madison, Wis.) according to manufacturer's protocol. A stable line of C2C12 cells that had been transfected with pMARE-luc (C2C12/pMARE clone #44) was used to measure myostatin activity according to the following procedure.
Equal numbers of the reporter cells (C2C12/pMARE clone #44) were plated into 96 well cultures. A first round screening using two dilutions of peptibodies was performed with the myostatin concentration fixed at 4 nM. Recombinant mature myostatin was preincubated for 2 hours at room temperature with peptibodies at 40 nM and 400 nM respectively. The reporter cell culture was treated with the myostatin with or without peptibodies for six hours. Myostatin activity was measured by determining the luciferase activity in the treated cultures. This assay was used to initially identify peptibody hits that inhibited the myostatin signaling activity in the reporter assay. Subsequently, a nine point titration curve was generated with the myostatin concentration fixed at 4 nM. The myostatin was preincubated with each of the following nine concentrations of peptibodies: […], 0.4 nM, 4 nM, 20 nM, 40 nM, 200 nM, 400 nM, 2 uM and 4 uM for two hours before adding the mixture to the reporter cell culture. The IC50 values were for a number of exemplary peptibodies are provided in Tables III and for affinity matured peptibodies, in Table VIII.

myostatin [2] = biological target: T1, myostatin; assay: BIAcore affinity analysis on immobilized myostatin; format: binding; conditions: Biacore assay
Excerpt: The antagonists including the binding agents described herein can be tested for their ability to bind myostatin and inhibit or block myostatin activity. Any number of assays or animal tests may be used to determine the ability of the agent to inhibit or block myostatin activity. Several assays used for characterizing the peptides and peptibodies of the present invention are described in the Examples below. One assay is the C2C12 pMARE-luc assay which makes use of a myostatin-responsive cell line (C2C12 myoblasts) transfected with a luciferase reporter vector containing myostatin/activin response elements (MARE). Exemplary peptibodies are assayed by pre-incubating a series of peptibody dilutions with myostatin, and then exposing the cells to the incubation mixture. The resulting luciferase activity is determined, and a titration curve is generated from the series of peptibody dilutions. The IC50 (the concentration of peptibody to achieve 50% inhibition of myostatin activity as measured by luciferase activity) was then determined. […]
Direct binding assays were used to screen and rank the peptibodies in order of their ability to bind to immobilized myostatin. […] Peptibody binding kinetic parameters including ka (association rate constant), kd (dissociation rate constant) and KD (dissociation equilibrium constant) were determined using the BIA evaluation 3.1 computer program (Biacore, Inc.). […]

[3] = biological target: T2, myostatin binding to ActRIIB/Fc (Homo sapiens, UniProt O14793); assay: Blocking assay on ActRIIB/Fc surface (BIAcore)
T2 construct: To produce mature myostatin, the pooled promyostatin was enzymatically cleaved between the propeptide and mature myostatin C terminal; host or cells: myostatin: E. coli K-12 strain 2596; ActRIIB/Fc purchased
T2 sequence (O14793 267-375): T1 sequence (O14793 267-375)
Experimental: Blocking Assay on ActRIIB/Fc Surface
Blocking assays were carried out using immobilized ActRIIB/Fc (R&D Systems, Minneapolis, Minn.) and myostatin in the presence and absence of peptibodies with the BIAcore® assay system. […] Baseline myostatin-ActRIIB/Fc binding was first determined in the absence of any peptibody.
For early screening studies, peptibodies were diluted to 4 nM, 40 nM, and 400 nM in sample buffer and incubated with 4 nM myostatin (also diluted in sample buffer). The peptibody:ligand mixtures were allowed to reach equilibrium at room temperature (at least 5 hours) and then were injected over the immobilized ActRIIB/Fc surface for 20 to 30 minutes at a flow rate of 10 μl/min. […] Selected peptibodies were further characterized using the blocking assay of a full concentration series in order to derive IC50 values (for neutralizing peptibodies) or EC50 (for non-neutralizing peptibodies). The peptibody samples were serially diluted from 200 nM to […] in sample buffer and incubated with […] myostatin at room temperature to reach equilibrium (minimum of five hours) before injected over the immobilized ActRIIB/Fc surface for 20 to 30 minutes at a flow rate of 10 μl/min. Following the sample injection, bound ligand was allowed to dissociate from the receptor for 3 minutes.

myostatin [4] = biological target: T1, myostatin; assay: Epitope binning for peptibodies (BIAcore); format: binding
Experimental: Epitope Binning for Peptibodies
A purified peptibody was immobilized on a BIAcore chip to capture myostatin before injection of a second peptibody, and the amount of secondary peptibody bound to the captured myostatin was determined Only peptibodies with distinct epitopes will bind to the captured myostatin, thus enabling the binning of peptibodies with similar or distinct epitope binding properties.

inhibition of myostatin activity in cell-based assay (myostatin [1]): inhibit myostatin activity
IC50 (myostatin [1]; pMARE luc cell-based assay, myostatin 4 nM): ~23 nM
Kd (myostatin [2]): ~2 nM
blocking of myostatin/ActRIIB/Fc interactions [3]: does not block
epitope on myostatin (binning) (myostatin [4]): bind to different epitopes
Substance: TN8-19: peptibody; peptide QGHCTRWPWMCPPY (cysteine pairing not given here; also: Fc fusion peptibody)
IC50 of peptibody compared with peptide (FIG. 1) (myostatin [1]; C2C12 based assay): significantly less than that of the peptide
